Source: PMC5597324 (Molecular Biology of the Cell, 2017)

Biological target: the molecule itself
Assay: SEC

B1: MBP-Stv1NT-FLAG (cytosolic N-terminal domain of the yeast Golgi V-ATPase Vo a-subunit isoform Stv1, aa 1-418) (domain or fragment, S. cerevisiae, UniProt P37296 1-418, looked up)
chain: MNQEEAIFRSADMTYVQLYIPLEVIREVTFLLGKMSVFMVMDLNKDLTAFQRGYVNQLRRFDEVERMVGFLNEVVEKHAAETWKYILHIDDEGNDIAQPDMADLINTMEPLSLENVNDMVKEITDCESRARQLDESLDSLRSKLNDLLEQRQVIFECSKFIEVNPGIAGRATNPEIEQEERDVDEFRMTPDDISETLSDAFSFDDETPQDRGALGNDLTRNQSVEDLSFLEQGYQHRYMITGSIRRTKVDILNRILWRLLRGNLIFQNFPIEEPLLEGKEKVEKDCFIIFTHGETLLKKVKRVIDSLNGKIVSLNTRSSELVDTLNRQIDDLQRILDTTEQTLHTELLVIHDQLPVWSAMTKREKYVYTTLNKFQQESQGLIAEGWVPSTELIHLQDSLKDYIETLGSEYSTVFNVIL
Does B1 bind?
Result: binds

B2: MBP-Stv1NT(K84A)-FLAG (domain or fragment, S. cerevisiae, UniProt P37296 1-418, looked up)
chain: MNQEEAIFRSADMTYVQLYIPLEVIREVTFLLGKMSVFMVMDLNKDLTAFQRGYVNQLRRFDEVERMVGFLNEVVEKHAAETWAYILHIDDEGNDIAQPDMADLINTMEPLSLENVNDMVKEITDCESRARQLDESLDSLRSKLNDLLEQRQVIFECSKFIEVNPGIAGRATNPEIEQEERDVDEFRMTPDDISETLSDAFSFDDETPQDRGALGNDLTRNQSVEDLSFLEQGYQHRYMITGSIRRTKVDILNRILWRLLRGNLIFQNFPIEEPLLEGKEKVEKDCFIIFTHGETLLKKVKRVIDSLNGKIVSLNTRSSELVDTLNRQIDDLQRILDTTEQTLHTELLVIHDQLPVWSAMTKREKYVYTTLNKFQQESQGLIAEGWVPSTELIHLQDSLKDYIETLGSEYSTVFNVIL
Does B2 bind?
Result: binds
